Results on 37 molecules are retold here after patent publication US20100144601A1 (Janssen / Centocor, published 2010).

The chains are these.
B1: Clone No. 6 (designed binder)
chain: LPAPKNLVVSEVTEDSLRLSWTAPDAAFDSFLIQYQESEKVGEAINLTVPGSERSYDLTGLKPGTEYTVSIYGVGGLTVIHPLSAEFTT
notes: F:G GGLTVIH
B2: Clone No. 14 (designed binder)
chain: B1 chain with T78S, V79F, I80L
notes: F:G GGLSFLH
B3: Clone No. 74 (designed binder)
chain: B1 chain with T78S, V79Y, I80L
notes: F:G GGLSYLH
B4: Clone No. 86 (designed binder)
chain: B1 chain with G75W, G76A, L77H, T78L, V79L, I80R, H81D
notes: F:G WAHLLRD
B5: Clone No. 9 (designed binder)
chain: B1 chain with T78S, V79Y, I80F
notes: F:G GGLSYFH
B6: Clone No. 83 (designed binder)
chain: B1 chain with G75D, G76V, L77T, T78E, I80Y, H81M
notes: F:G DVTEVYM
B7: Clone No. 5 (designed binder)
chain: B1 chain with T78S
notes: F:G GGLSVIH
B8: Clone No. 34 (designed binder)
chain: B1 chain with I80L
notes: F:G GGLTVLH
B9: Clone No. 35 (designed binder)
chain: B1 chain with T78A, V79Y, I80L
notes: F:G GGLAYLH
B10: Clone No. 4 (designed binder)
chain: B1 chain with T78G
notes: F:G GGLGVIH
B11: Clone No. 36 (designed binder)
chain: B1 chain with T78S, I80V
notes: F:G GGLSVVH
B12: Clone No. 13 (designed binder)
chain: B1 chain with G76A, T78S
notes: F:G GALSVIH
B13: Clone No. 10 (designed binder)
chain: B1 chain with V79D
notes: F:G GGLTDIH
B14: Clone No. 69 (designed binder)
chain: B1 chain with G75V, G76L, L77S, T78V, V79L, I80Q, H81R
notes: F:G VLSVLQR
B15: Clone No. 71 (designed binder)
chain: B1 chain with T78R, V79Y, I80L
notes: F:G GGLRYLH
B16: Clone No. 72 (designed binder)
chain: B1 chain with G75M, G76L, L77K, T78S, V79F, I80A, H81S
notes: F:G MLKSFAS
B17: Clone No. 12 (designed binder)
chain: B1 chain with T78R
notes: F:G GGLRVIH
B18: Clone No. 82 (designed binder)
chain: B1 chain with G75W, G76M, L77V, T78N, V79K, I80V, H81L
notes: F:G WMVNKVL
B19: Clone No. 75 (designed binder)
chain: B1 chain with G75M, G76T, V79G, H81D
notes: F:G MTLTGID
B20: Clone No. 73 (designed binder)
chain: B1 chain with G75P, G76W, L77R, T78Y, V79G, I80L
notes: F:G PWRYGLH
B21: Clone No. 81 (designed binder)
chain: B1 chain with G75V, G76L, L77S, T78L, V79W, I80M, H81I
notes: F:G VLSLWMI
B22: Clone No. 78 (designed binder)
chain: B1 chain with G75R, G76L, L77T, T78A, V79L, I80N, H81A
notes: F:G RLTALNA
B23: Clone No. 3 (designed binder)
chain: B1 chain with G75E, T78G
notes: F:G EGLGVIH
B24: Clone No. 77 (designed binder)
chain: B1 chain with G75L, G76D, T78Y, V79L, I80R, H81T
notes: F:G LDLYLRT
B25: Clone No. 2 (designed binder)
chain: B1 chain with T78S, V79D
notes: F:G GGLSDIH
B26: Clone No. 80 (designed binder)
chain: B1 chain with G75R, G76V, L77S, T78E, V79E, I80Y, H81G
notes: F:G RVSEEYG
B27: Clone No. 68 (designed binder)
chain: B1 chain with G75W, G76H, L77G, T78M, V79I, I80R, H81P
notes: F:G WHGMIRP
B28: Clone No. 1 (designed binder)
chain: B1 chain with V79Y, I80F
notes: F:G GGLTYFH
B29: Clone No. 79 (designed binder)
chain: B1 chain with G76I, L77P, T78R, V79W, I80V, H81R
notes: F:G GIPRWVR
B30: Clone No. 7 (designed binder)
chain: B1 chain with V79Y
notes: F:G GGLTYIH
B31: Clone No. 11 (designed binder)
chain: B1 chain with T78S, V79S
notes: F:G GGLSSIH
B32: Clone No. 76 (designed binder)
chain: B1 chain with L77W, T78P, I80R, H81V
notes: F:G GGWPVRV
B33: Clone No. 84 (designed binder)
chain: B1 chain with G75S, G76V, L77R, T78M, V79S, I80S, H81V
notes: F:G SVRMSSV
B34: Clone No. 8 (designed binder)
chain: B1 chain with V79Y, I80L
notes: F:G GGLTYLH
B35: Clone No. 15 (designed binder)
chain: B1 chain with G75I, G76T, L77H, T78M, V79R, I80D, H81M
notes: F:G ITHMRDM
B36: Clone No. 85 (designed binder)
chain: B1 chain with G75L, G76W, L77W, V79L, I80R, H81K
notes: F:G LWWTLRK
B37: Clone No. 70 (designed binder)
chain: B1 chain with G75E, G76W, L77R, T78V, V79Q, I80V, H81A
notes: F:G EWRVQVA

Positions count from the first letter of the chain named.

The target of the assay is T1, recombinant TNFα, biotinylated (human, UniProt P01375 77-233, biotinylated using sulfo-NHS-LC-Biotin (sites not given)).
T1 construct: human is stated in the abstract and claims; also called biotinylated TNFα; human TNFα
T1 sequence (P01375 77-233 limits assumed): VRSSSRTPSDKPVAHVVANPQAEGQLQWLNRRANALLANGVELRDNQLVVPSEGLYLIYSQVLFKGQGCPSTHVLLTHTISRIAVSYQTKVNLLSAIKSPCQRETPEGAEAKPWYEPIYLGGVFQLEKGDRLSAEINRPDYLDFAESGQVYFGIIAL
Description: ELISA of lysates on biotinylated TNFα on streptavidin plate. The method, then: Maxisorp plates (Nunc) were coated with 0.5 μg of streptavidin, washed with TBST, and bound to 100 ng of biotinylated TNFα or 200 ng of biotinylated human serum albumin before being blocked with Starting Block (Thermo Scientific). Clarified lysates diluted 1:1 in Starting Block were added to the plates and allowed to bind for 1 hour before being washed with TBST. Detection of bound Tencon was accomplished using an anti-HIS-HRP antibody (Qiagen).
On the technique in general: In an ELISA, binding on a coated surface is turned into a signal by an enzyme label.
On to B1, for which the binding result is on record as “binds”. The entry for B2 is “binds”; for B3 it is “binds”.

For B4, the binding result is on record as “binds”. B5: the binding result was “binds”. The entry for B6 is “binds”; for B7 it is “binds”. For B8, the binding result was “binds”. For B9, the binding result is “binds”. For B10, the binding result is “binds”. For B11, the binding result is recorded as “binds”. Turning to B12, the binding result is listed as “binds”. For the molecule B13, the binding result is recorded as “binds”. As for B14, the binding result was “binds”. Regarding B15, the binding result was “binds”. Take B16: the binding result is given as “binds”.

Take B17: the binding result is recorded as “binds”. With B18, the binding result was “binds”.

As to B19, the binding result is given as “binds”. On to B20, for which the binding result was “binds”. In the case of B21, the binding result was “binds”.

B22: the binding result is “binds”. With B23, the binding result is listed as “binds”. As to B24, the binding result is on record as “binds”. To B25 belongs “binds”; to B26, “binds”. Regarding B27, the binding result is “binds”.

Turning to B28, the binding result was “binds”. As to B29, the binding result is recorded as “binds”. The entry for B30 is “binds”. In the case of B31, the binding result is reported as “binds”. On to B32, for which the binding result is recorded as “binds”. To B33 belongs “binds”; to B34, “binds”. As for B35, the binding result is given as “binds”.

B36: the binding result is “binds”. Take B37: the binding result is on record as “binds”.
